Target: antigen PIPA (human)
Experiment: cell-based or functional assay

decrease in cell proliferation of OV90 cells (MTT) with PIP at 10 ug/ml and MAb-ZAP saporin-linked secondary antibody: 50 percent
B1: monoclonal antibody PIP (antibody, V domains shown)
V domain 1: DVQLQESGPDLVKPSQSVSLTCTVTGYSITSGYGWHWIRQFPGNKLEWMGCIHYSGSTNYNPSLKSRISVTRDTSKNQFFLQLNSVTTEDTATYYCARREYGNYAMDYWGQGTSVTVSS
V domain 2: DVQLQESGPDLVKPSQSVSLTCTVTGYSITSGYGWHWIRQFPGNKLEWMGCIHYSGSTNYNPSLKSRISVTRDTSKNQFFLQLNSVTTEDTATYYCARREYGNYAMDYWGQGTSVTVSS
